Results published in US20160340439A1.

What was measured:
Assay in all cases: IP + mass spec of B16 melanoma proteins; ratio to alloIgG
[1] = molecular target: Vacuolar protein sorting-associated protein 35 (mouse) (UniProt Q9EQH3)
[2] = molecular target: Translocation protein SEC62 (mouse) (UniProt Q8BU14)
[3] = molecular target: Stromal cell-derived factor 2-like protein 1 (mouse) (UniProt Q9ESP1)
[4] = molecular target: Disco-interacting protein 2 homolog B (mouse) (UniProt Q3UH60)
[5] = molecular target: Arginine and glutamate-rich protein 1 (mouse) (UniProt Q3UL36)
UniProt Q3UL36, sequence (Q3UL36 whole entry): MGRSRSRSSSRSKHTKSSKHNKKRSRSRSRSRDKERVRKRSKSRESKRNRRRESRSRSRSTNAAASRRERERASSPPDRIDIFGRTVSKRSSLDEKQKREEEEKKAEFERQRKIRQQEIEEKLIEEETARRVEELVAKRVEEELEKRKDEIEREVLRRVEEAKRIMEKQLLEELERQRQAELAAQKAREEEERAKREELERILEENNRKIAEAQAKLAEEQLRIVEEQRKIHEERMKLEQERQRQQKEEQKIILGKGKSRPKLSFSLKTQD

[6] = molecular target: Mitochondrial inner membrane protein (mouse) (UniProt Q8CAQ8)
UniProt Q8CAQ8, sequence (Q8CAQ8 34-757 limits assumed): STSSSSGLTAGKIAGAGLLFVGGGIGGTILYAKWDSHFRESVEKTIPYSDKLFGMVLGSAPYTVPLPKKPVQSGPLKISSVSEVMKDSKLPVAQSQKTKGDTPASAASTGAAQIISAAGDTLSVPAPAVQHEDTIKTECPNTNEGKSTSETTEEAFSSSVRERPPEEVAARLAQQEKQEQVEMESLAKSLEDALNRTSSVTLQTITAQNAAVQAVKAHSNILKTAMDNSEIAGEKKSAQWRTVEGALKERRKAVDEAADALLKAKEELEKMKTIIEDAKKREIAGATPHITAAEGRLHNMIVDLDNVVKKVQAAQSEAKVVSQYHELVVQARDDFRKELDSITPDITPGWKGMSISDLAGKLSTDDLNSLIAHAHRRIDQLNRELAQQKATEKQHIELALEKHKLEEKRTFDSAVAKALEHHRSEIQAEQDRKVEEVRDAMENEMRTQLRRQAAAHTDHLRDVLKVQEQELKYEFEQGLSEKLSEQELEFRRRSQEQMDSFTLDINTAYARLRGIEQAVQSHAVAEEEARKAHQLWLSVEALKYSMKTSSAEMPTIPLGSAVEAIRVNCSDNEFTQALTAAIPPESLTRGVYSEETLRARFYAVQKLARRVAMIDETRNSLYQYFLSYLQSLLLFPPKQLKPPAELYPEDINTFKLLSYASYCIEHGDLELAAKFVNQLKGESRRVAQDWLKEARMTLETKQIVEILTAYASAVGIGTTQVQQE

[7] = molecular target: Fibrous sheath-interacting protein 2 (mouse) (UniProt A2ARZ3)
[8] = molecular target: Angiomotin-like protein 2 (mouse) (UniProt Q8K371)
UniProt Q8K371, sequence (Q8K371 whole entry, the tested form may be a part): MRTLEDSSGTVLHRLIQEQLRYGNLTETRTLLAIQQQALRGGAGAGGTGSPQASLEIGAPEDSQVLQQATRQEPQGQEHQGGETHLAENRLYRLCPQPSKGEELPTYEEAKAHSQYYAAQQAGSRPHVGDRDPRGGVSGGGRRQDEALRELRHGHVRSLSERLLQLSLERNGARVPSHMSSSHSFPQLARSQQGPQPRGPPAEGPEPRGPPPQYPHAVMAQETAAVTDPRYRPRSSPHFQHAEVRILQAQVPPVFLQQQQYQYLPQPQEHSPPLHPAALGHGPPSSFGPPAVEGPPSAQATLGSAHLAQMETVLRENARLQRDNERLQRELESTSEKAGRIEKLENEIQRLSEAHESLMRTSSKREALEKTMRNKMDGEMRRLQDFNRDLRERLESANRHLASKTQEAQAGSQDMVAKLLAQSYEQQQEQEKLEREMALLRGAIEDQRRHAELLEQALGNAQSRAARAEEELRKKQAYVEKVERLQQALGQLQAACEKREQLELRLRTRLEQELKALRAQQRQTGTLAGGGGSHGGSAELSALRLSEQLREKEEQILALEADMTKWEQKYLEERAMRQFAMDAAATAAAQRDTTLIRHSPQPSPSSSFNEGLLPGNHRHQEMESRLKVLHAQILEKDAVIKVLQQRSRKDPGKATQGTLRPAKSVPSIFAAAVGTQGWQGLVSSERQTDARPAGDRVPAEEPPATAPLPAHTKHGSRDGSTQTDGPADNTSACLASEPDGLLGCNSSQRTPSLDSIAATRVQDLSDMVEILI

[9] = molecular target: CDGSH iron-sulfur domain-containing protein 1 (mouse) (UniProt Q91WS0)
UniProt Q91WS0, sequence (Q91WS0 whole entry, the tested form may be a part): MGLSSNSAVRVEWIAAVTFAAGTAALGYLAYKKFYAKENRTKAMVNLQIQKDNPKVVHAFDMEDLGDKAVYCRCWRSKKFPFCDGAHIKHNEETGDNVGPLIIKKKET

Nicalin (mouse) = Nicalin (mouse) (UniProt Q8VCM8)
UniProt Q8VCM8, sequence (Q8VCM8 43-563 limits assumed): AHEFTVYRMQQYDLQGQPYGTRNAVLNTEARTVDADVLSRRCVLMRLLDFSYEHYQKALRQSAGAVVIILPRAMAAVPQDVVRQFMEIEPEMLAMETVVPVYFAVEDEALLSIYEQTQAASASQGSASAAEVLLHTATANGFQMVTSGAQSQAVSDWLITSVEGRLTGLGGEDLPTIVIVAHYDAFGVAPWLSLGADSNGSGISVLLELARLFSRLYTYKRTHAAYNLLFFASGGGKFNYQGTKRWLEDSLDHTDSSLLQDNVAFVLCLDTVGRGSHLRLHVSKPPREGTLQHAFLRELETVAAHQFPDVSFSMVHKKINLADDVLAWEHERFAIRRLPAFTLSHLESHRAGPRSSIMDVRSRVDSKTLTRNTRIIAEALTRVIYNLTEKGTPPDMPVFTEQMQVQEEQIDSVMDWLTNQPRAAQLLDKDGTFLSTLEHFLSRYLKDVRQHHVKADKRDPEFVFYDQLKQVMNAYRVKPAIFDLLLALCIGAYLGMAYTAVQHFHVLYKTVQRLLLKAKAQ

[10] = molecular target: Trifunctional enzyme subunit beta, mitochondrial (mouse) (UniProt Q99JY0)
UniProt Q99JY0, sequence (Q99JY0 35-475 limits assumed): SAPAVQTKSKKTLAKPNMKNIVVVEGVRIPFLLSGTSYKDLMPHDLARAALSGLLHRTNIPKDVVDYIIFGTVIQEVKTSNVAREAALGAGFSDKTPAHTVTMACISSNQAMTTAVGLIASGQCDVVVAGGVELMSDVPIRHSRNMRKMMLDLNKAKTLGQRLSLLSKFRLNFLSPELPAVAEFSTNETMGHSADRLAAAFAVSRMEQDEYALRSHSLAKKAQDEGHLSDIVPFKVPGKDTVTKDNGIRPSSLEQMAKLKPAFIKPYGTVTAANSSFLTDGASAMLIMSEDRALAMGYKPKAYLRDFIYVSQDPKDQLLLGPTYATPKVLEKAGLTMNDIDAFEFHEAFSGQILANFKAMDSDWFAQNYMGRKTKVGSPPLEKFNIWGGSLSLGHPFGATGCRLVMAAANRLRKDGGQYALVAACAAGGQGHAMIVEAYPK

UniProt Q9ESP1, sequence (Q9ESP1 29-221 limits assumed): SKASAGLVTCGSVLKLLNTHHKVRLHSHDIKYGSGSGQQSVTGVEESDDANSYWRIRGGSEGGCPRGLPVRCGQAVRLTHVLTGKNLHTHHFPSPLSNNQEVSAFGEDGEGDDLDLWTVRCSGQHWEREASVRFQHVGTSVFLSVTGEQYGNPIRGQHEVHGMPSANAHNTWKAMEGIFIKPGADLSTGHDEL
UniProt Q8BU14, sequence (Q8BU14 whole entry): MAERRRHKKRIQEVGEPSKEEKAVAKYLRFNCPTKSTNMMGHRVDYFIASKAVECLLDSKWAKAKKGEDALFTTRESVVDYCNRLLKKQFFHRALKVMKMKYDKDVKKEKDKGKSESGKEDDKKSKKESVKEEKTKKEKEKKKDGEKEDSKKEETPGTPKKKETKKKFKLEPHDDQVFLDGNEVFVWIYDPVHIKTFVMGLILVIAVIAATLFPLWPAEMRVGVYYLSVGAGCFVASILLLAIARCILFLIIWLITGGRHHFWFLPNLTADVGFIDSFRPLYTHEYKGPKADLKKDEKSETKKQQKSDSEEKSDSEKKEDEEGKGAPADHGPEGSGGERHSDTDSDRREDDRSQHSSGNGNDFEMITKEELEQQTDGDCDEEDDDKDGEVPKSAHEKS
UniProt Q3UH60, sequence (Q3UH60 whole entry): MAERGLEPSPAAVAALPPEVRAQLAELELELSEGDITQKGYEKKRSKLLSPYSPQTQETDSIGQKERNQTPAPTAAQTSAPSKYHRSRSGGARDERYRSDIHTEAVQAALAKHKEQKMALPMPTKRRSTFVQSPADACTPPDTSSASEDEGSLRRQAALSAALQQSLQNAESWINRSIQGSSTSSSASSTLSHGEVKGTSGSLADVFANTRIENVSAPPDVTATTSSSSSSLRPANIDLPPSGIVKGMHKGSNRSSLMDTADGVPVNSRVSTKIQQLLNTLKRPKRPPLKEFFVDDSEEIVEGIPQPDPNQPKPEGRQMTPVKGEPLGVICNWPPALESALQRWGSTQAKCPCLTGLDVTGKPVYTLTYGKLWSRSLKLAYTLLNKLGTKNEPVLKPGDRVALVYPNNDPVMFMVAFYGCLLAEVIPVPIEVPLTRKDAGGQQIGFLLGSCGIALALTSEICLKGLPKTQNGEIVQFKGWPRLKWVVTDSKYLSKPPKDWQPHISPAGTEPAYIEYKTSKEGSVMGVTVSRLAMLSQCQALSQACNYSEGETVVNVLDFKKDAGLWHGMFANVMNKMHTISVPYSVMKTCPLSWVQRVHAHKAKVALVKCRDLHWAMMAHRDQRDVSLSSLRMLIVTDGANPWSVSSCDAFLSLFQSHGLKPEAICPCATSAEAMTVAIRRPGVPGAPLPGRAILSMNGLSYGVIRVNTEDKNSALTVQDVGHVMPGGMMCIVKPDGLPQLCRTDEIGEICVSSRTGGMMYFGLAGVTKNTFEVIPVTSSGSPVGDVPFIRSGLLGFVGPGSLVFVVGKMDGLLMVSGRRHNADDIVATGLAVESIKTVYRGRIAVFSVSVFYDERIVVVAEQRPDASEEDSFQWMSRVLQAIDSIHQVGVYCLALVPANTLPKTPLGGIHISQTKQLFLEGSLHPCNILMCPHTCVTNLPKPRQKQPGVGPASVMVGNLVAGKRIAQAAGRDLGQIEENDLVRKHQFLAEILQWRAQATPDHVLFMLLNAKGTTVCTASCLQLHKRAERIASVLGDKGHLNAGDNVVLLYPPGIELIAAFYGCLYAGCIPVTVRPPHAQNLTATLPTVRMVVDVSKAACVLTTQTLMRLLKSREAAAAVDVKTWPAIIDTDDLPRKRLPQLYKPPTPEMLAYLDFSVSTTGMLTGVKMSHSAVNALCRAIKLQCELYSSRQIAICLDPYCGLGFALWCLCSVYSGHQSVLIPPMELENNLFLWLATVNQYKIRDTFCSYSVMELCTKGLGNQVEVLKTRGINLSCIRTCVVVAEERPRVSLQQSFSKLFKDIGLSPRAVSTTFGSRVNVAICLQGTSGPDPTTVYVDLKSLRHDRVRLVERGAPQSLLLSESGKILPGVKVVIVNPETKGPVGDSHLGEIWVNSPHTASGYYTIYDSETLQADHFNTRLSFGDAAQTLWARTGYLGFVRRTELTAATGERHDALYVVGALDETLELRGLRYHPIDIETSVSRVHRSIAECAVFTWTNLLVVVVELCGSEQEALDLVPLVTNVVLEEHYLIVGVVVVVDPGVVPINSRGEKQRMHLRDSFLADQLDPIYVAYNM

“syngeneic IgG (from sera of C57B1/6 mice) (antibody)” showed a syn/allo ratio [1] of 2, a syn/allo ratio [2] of 4 and a syn/allo ratio [3] of 3. The syn/allo ratio [4] was 4, the syn/allo ratio [5] was 2 and the syn/allo ratio [6] was 2.99. It also gave a syn/allo ratio [7] of 9, a syn/allo ratio [8] of 6 and a syn/allo ratio [9] of 2. It also gave a syn/allo ratio (Nicalin (mouse)) of 2 and a syn/allo ratio [10] of 2.6.
